Experiment: yeast display, Sf9 membrane polyspecificity reagent, FACS + sequencing; frameworks hold sequencing errors
Summary of the method: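 A synthetic nanobody library was expressed on Saccharomyces cerevisiae BJ5465 by galactose induction for 36–48 hours. The library was stained for 1 hour at 4 °C with 10% biotinylated, detergent-solubilized Sf9 membrane reagent and enriched with streptavidin microbeads before FACS. Low and high (top ~1%) gates were set on anti-HA fluorescence for expression and streptavidin fluorescence for reagent binding, and each polyreactivity label reflects the gate of origin.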

Sequence | polyreactivity (PSR sort gate)
QVQLVETGGGLVQAGGSLRLSCAASGGIFVTYAMGWYRQAPGKERELVAAITSGDSTYYADSVKGRFTISRDNAKNTVYLQMNSLKAEDTGVYYCAVGSTDRVSAQGSYFTYDYWGQGTQVTVSS | low polyreactivity
QVQLVESGGGLVQAGGSLRLSCAASGSTFLSYAKGWYRQATGKEREVVAAISGRGGSTYYADSVKGRFTISRDNAKNTVYLKMNSLKPEDTAVYYCARVYRPSADTYNYWGQGTQVTVSS | high polyreactivity
QVQLVDSGGGLVQAGGSLRLSCAASGSTFRGYDMGWYRQAPGKESELVAAITGSGTSTYYADSVKVRFTISRDNAKNTVYLQMNSLKPEDTAVYYCAARSRRPAERMYYWGQGTQVTVSS | high polyreactivity
QVQLVESGGGLVQAGGSLRLSCAASGSTFRSNAMGWYRQAPGKERELVAAIRYSGARTYYADSVKGRFTISRDNAKNTVYLQMNSLKPEDTAVYYCAATLYTRTYSWMDYWGQGTQVTVSS | high polyreactivity
QVQLVESGGGLDQAGGSLRLSCAASGSIFAYYVMGWYRQAKGKERELVAAITSVGSTNYADSVKGRFTISRDNAKNTVYLQMNSLKPEESAVFYCAADQYQARYYYWGQGTQVTVSS | low polyreactivity
QVQLVESGGGLVQAGGSLRLSCAASGRIYWSYDMGWNRQAPVKERELVASITSDGSTNYADSVKGRFTISRDNAKNTVYLQMNSLKPEDTAVYYCAARPYKYDPFAQGDGGKYDYWGQGTQVTVSS | low polyreactivity
QVQLVESGGGLVQAGGSLRLSCAASGFIFSYYAMGWYIQEPGKERELVAAITVTGGNTYYADSVKGRFTISRDNAKNTVYLQMNSLIPEDTAVYYCAAVVRGPGVSVYYWGLGTQVTVSS | low polyreactivity
QVQLVESGGGLVQAGGSLRLSCAASGITFIGYAMGWYRQAPGKERELVAAITTNGGGTYYADSVKWRFTISRDNAKKTVYLQMNSLKPEDTAVYYCNAVKQRSSIFDYWGQGSQVTVSS | low polyreactivity
QVQLVESGGGLVQAGGSLRLSCAASGSIIQVYAMGWYRQATGKERELVASITRTGGSTYYADSVKGRFTISRDNAKNTVYLLMNSLKPEDTAVYYCAAEKRYYYYVKYWKSDYWGQGTQVTVSS | low polyreactivity
QVQLVESGGGLVQAGGSLRLSCAASGFTFRYYAMGWYRQAPGKERELVADITWSGTRTYYADSVKGRFTISRDNAKNTVYLQMNSLKPEDTAVYYCAKVTWVRGSYYRNKSSIYDYWGQGTQVTVSS | high polyreactivity
QVQLVESGGGLVQAGGSLRLSCAASGFTFRGYAMGWYRQAPGKERELVASISYRGDSTYYADSVKGRFTISRDNAKNTVYLQMNSLKPADTAGYYCNKLLASYYLPGFDYWGQGTQVTVSS | low polyreactivity
QVQLVESGGGLVQAGGSLRLSCAASGRIFAYNTMGWYRQAHGKEREFVAVITSGGSTNYADSVKGRFTISRDNAKNTVFLLLNSLKPEDTAVYYCAKRPYGRSGGSRYDYWGQGTKVTVSS | high polyreactivity
QVQLVESGGGLVQAGGSLRLSCAASGRIFHVYAMGWYRQAPGKERELVAAISSGDRTYYADSVNGRFIISRDNAKNTVYLQMNSLKPEDTAVYYCWLYPAAVSNYWGQGTQVTVSS | low polyreactivity
QVQLVESGGGLVQAGGSLLLSCAASGSTFVVNAMAWYRQAPGKERELVAAIRNSGSTTYADSVKGRFTISRDNAKNTVYLQMNSLKPEDTAVYYCATDISATVTAVQINPYDYWGQGSQVTVSS | low polyreactivity
QVQLEESGGGLVQAGGSLRLSCAASGSIFYSNAMGWYRQAPGKERELVATIRSGGTTYYADSVKGRFTISRDNAKNTVYLQMNSLKPEDTAVYYCAKRYGVKYWGQGTQVTVES | high polyreactivity
QVQLVESGGGLVQAGGSLRLSCAASGFILGRYAMGWYRQAPGKERELVAAISIGGRTNYADSVKGRFTISRDNAKNTVYLQMNSLKPEDTEVYYCAVDRYVTYSLSNSLYEYWGQGTQVTVSS | low polyreactivity
QVQLVESGGGLVQAGGSLRLSCAASGFIFWFYAMGWYRQAPGKERELVASISASGGSTNYADSVKGRFTISRDYAKKTVYLQMNSLKPEDTAVYYCAARKRYLRGYWGQGTQVTVSS | high polyreactivity
QVQLVESGGGLVQAGGSLRLSCAASGLTIDYYTMGWYRQAPGKERELVAAINWSGGRTYYADSVKGRFTISRDHAKNTVYLQMNSLKPEDTAVYYCAADTYRRHDDDYWGQGTQVTVSS | high polyreactivity
QVQLVESGGRLVQAGGSLRLTCAATGRTFVRNPMGSYRQAPGKERELVATIRSGGSTNYADSVKGRFTISRDNAKNTVYLQMNSLKPEDTAVYYCATQGSRARYDYYYWGQGTQVTVSS | high polyreactivity
QVQRVESAGGLVQAGGSLRISCAASGSTLYKYAMGWYRQAPGKERELVAAISWSGSSTYYADSVKGRFTISRDNAKNTVYLQMNSLKPVDTAVYYCAAYPRPYIVYTDGYVWYEFDYWGQGTQVTVSS | low polyreactivity
QVQLVESGGGLVQAGGSLRLSCAASGLTFTSYAMGWYRQAPGKERELVAAIDWSGGRTYYADSVKGRFTISRDNAKNTVYLQMNSLKPEDTAVYYCAAYSRNRALRFNYWGQGTQVTVSS | high polyreactivity
QVQLVESGGGLVQAGGSLRLSCAASGIFYFYAMGWYRQAPGKERELVAAITSSGGNTTYADSVKGRFTISRDNAKNTVYLQMNSLKPEDTAVYYCNADYFQDRLDYWGQGTQVTVSS | low polyreactivity

Sequence | polyreactivity (PSR sort gate)
QVQLVESGGGLVQAGGSLRLSCAASGYIFHLYGMGWYRQAPGKERELVARISYRGGSTYYADSVKGRFTISRDNAKNTVYLQMNSLKTEDTAVYYCAKDYYKHYYWGQGTQVTVSS | high polyreactivity
QVQLVESGGGLVQAGGSLRLSCAACGGIFWHYTLGWYRKAPGKERELVAAITRRGGSTYYADSVMGRFTISRDNAKNTVYLQMNSLKPEDTAVYYCAADFLPQSYNWYDYWGQGTQVTVSS | low polyreactivity
QVQLVESGGGLVQAGGSLRLSCAASGRTFPVNAMGWYRQAPAKQSELVATISWSGGSTYYADSVKGRFTISRDNAKNTVYLQMNSLKPEDTAVYYCAALGRHYRYDYWGQGTQVTVSS | low polyreactivity
QVQLVESGGGLFQAGGSLRLSCAPSGRTFDYNAMGWYRQAPGKERELVAAISGSGTRTFYADSVKGRFTISRDNAKNTVYLQMNSLKPEDTAVYYCAASHGWSKSIFYYWGQGTQVTVSS | high polyreactivity
QVQLVESGGGLVQAGGSLRLSCAASGRIFRIYTMGWYRQAPGKERELVAAITKSGGSTSYADSVKGRFTISRDNAKNTVYLQMNILKPEDTAVYYCNAKGWTRPPGYDYWGQGTQVTVSS | high polyreactivity
QVQLVESGGGLVQAGGSLSLSWAASGSTFETNAMGWYRQAPGKERELVAVITRGGSTYSADSVKGRFTISRDNAKNTVFLQMNRLKPEDTAVYYCNTVKYVPINYIYAMDYWGQGTQVTVSS | low polyreactivity
QVQLVESGGGLVQAGGSLRLRCAASGRIFPWYAMGWYRHAPGGEREFVAVISRSGGSTYYADSVKGRFTISRDNAKNTVYLQMNSLKPEDTAVYYCASDGKFEYDYWGQGTQVTVSS | low polyreactivity
QVQLVESGGGLVQAGGSLRLSCAASGFTFSGYAMGWYRQAPGKERELVAAITRRGGSTYYADSVKGRFTISRDNAKNTVYLQMNSLKPEDTAVYYCAADSGYPWELDYWGQGTQVTVSS | low polyreactivity
QVQLVESGGGLVQAGGSLRLSCAASGRIFTIYAMGWSRQAPGKERELVAAITVSTGSTYYADSVKGRFTISRDNAKNTVYLQMKSLKPEDTAVYYCAKRGQSYTYRRYDYWGQGTQVTVSS | low polyreactivity
QVQLVESGGGLVQAGGSLRLSCAASGYTFGPYAMGWYRQAPGKERELVAAITTRGGSTYYADSVKGRFTISRYNAKNTVYLQMNSLKPEDTAVYYCAAESIRSDDYWGQGTQVTVSS | high polyreactivity
QVQLVESGGGLVQAGGSLRLICAASGRIFKNNAMGWYRQAPGKEREFVAAISSIGGRTYYADSVKGRFTISRDNAKNTVYLQMISLKPEDTAVYYCAARGYTGGLWYDYWGQGTQVTVSS | high polyreactivity
QVQLVESGGGLVQAGGSLRISCAASGSTFGYNDMGWYRQAPGKERELVAAIDTGVSTNYADSVKGRFTISRDNAKNTVYLQMNSLKPEDTAVYYCAKSGSAYWHSGWSVGFDYWGQGTQVTVSS | low polyreactivity
QVQLVESGGGLVQAGGSLRLSCAASGRIFTGYAMGWYRQAPGKERELVATIRSRGGGTYYADSVKGRFTISRDNAKNTVYLQMNSLKPEDTAVYYCAADDYYYYFGTRYGYWGQGTQVTVSS | low polyreactivity
QVQLVESGGGLVQAGGSLRLSCAASGSIFFEYAMGWYRQAPGKERELVASINRGGGSTYYADSVKGRFTISRDNAKNTVYLQMNSLKPEDTAVYYCAAQWKYRQSYLDYYWGQGTQVTVSS | low polyreactivity
QVQLVESGGGLVQAGGSLRLSCAASGTFVTYMGWYRQAPGKERELVAVISASGDSVKGRFTISRDNAKNTVYLQMNSLNPEDTAVYYCARELYRRVWHHWAYWAAYDYWGQGTQVTVSS | low polyreactivity
QVELVESGGGLVQAGGSLRLSCAASGFTFVSYAMGWYRQAPGKEREFVATISKRGGSTYYADSVKGRFTISRDNAKNTVYLQMNSLKPEDTAVYYCAVRYPYYSYRAKLGYCGQGTQVTVSS | high polyreactivity
QVQLVESGGGLVQAGGSLRLSCAASGLIFSQNAMGWYRQAPGKERELVARITLSGTSTYYADSVKGRFTISRDNAKNTVYLQMISLKPEDTAVYYCNTRSYSYYVPYRYDYWGQGTQVTVSS | high polyreactivity
QVQLVESGGGLVQAGGSLRLSCAASGFTFGGYAMGWYRQAPGKERELVARIRRSGGSTYYADSVKGRFTISRDNAKNTVYLQMNSLKPEDTAVYYCAAGYSRGQYRYNYWGQGTQVTVSS | high polyreactivity
QVQLVESGGGLVHAGGRLRLSCAASGRTLAPYAMGWYRQAPGKERELVADIDRGGGSTYYADSVTGRFTISRDNAKNTVYLQMNSVKPEDTAVYYCYVDETGVLVAYTFDYWGQGTQVTVSS | low polyreactivity
QDQLVESGGGLVQAGGSLRLSCAASGRIFCSYAMGWYRQAPGKERELVAAISRRGGGTYYADSVKGRFTISRENAKNTVYLQMNSLKPEDTAFYYCAKDWYGRYYYWGQGTQVTVSS | high polyreactivity
QVQLVESGGGLVQAGGSLRLSCAASGFIFGTYVMGWYRQAPGKERELVAAISESGGRTYYADSVKGRFTISRDNAKNTVYLQMNSLKPEDTADYYCAKLRHIRFHYYYGYQSYYYWVQGTQVTVSS | high polyreactivity

Reference: the nanobody polyreactivity screen of Harvey et al. (2022)
